How the values were obtained:
[1] = target: T1, 4H2691-bH; experiment: two-hybrid library CCNG1;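 further: natural log of median RNA to DNA barcode read ratio; higher means stronger binding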
T1 chain: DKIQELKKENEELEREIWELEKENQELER

[2] = target: T2, 4H496-bH; experiment: two-hybrid library CCNG1;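 further: natural log of median RNA to DNA barcode read ratio; higher means stronger binding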
T2 chain: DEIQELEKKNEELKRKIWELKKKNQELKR

[3] = target: T3, 4H3632-bH; experiment: two-hybrid library CCNG1;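 further: natural log of median RNA to DNA barcode read ratio; higher means stronger binding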
T3 chain: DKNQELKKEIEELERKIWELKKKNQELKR

[4] = target: T4, 4H342-bH; experiment: two-hybrid library CCNG1;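 further: natural log of median RNA to DNA barcode read ratio; higher means stronger binding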
T4 chain: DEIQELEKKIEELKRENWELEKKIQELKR

[5] = target: T5, 4H3070-bH; experiment: two-hybrid library CCNG1
T5 chain: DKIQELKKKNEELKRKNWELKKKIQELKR

[6] = target: T6, 4H363-bH; experiment: two-hybrid library CCNG1
T6 chain: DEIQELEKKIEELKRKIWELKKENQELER

[7] = target: T7, 4H2717-bA; experiment: two-hybrid library CCNG1
T7 chain: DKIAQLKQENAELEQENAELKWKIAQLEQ

[8] = target: T8, 4H470-bH; experiment: two-hybrid library CCNG1
T8 chain: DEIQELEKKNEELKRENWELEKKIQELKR

[9] = target: T9, 4H3907-bH; experiment: two-hybrid library CCNG1
T9 chain: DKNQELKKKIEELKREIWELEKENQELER

[10] = target: T10, 4H344-bH; experiment: two-hybrid library CCNG1
T10 chain: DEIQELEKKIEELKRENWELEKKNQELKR

[11] = target: T11, 4H3961-bH; experiment: two-hybrid library CCNG1
T11 chain: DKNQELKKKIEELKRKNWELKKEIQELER

[12] = target: T12, 4H2619-bH; experiment: two-hybrid library CCNG1
T12 chain: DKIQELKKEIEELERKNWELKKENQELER

[13] = target: T13, 4H2745-bH; experiment: two-hybrid library CCNG1
T13 chain: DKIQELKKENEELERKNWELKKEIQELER

[14] = target: T14, 4H918-bN; experiment: two-hybrid library CCNG1
T14 chain: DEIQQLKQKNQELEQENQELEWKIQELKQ

[15] = target: T15, 4H953-bN; experiment: two-hybrid library CCNG1
T15 chain: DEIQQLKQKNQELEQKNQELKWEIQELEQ

[16] = target: T16, 4H855-bN; experiment: two-hybrid library CCNG1
T16 chain: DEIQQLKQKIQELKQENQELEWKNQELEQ

[17] = target: T17, P1A-bN; experiment: two-hybrid library CCNG1
T17 chain: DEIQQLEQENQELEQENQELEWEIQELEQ

[18] = target: T18, 4H968-bN; experiment: two-hybrid library CCNG1
T18 chain: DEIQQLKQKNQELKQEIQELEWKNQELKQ

[19] = target: T19, 4H797-bA; experiment: two-hybrid library CCNG1
T19 chain: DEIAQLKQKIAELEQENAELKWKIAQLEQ

[20] = target: T20, 4H968-bA; experiment: two-hybrid library CCNG1
T20 chain: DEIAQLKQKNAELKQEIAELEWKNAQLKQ

[21] = target: T21, 4H4073-bA; experiment: two-hybrid library CCNG1
T21 chain: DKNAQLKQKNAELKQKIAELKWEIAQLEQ

[22] = target: T22, 4H457-bA; experiment: two-hybrid library CCNG1
T22 chain: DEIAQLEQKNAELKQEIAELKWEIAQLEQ

[23] = target: T23, 4H3926-bA; experiment: two-hybrid library CCNG1
T23 chain: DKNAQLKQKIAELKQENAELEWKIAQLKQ

[24] = target: T24, 4H3112-bA; experiment: two-hybrid library CCNG1
T24 chain: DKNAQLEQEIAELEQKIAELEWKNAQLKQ

[25] = target: T25, 4H2627-bA; experiment: two-hybrid library CCNG1
T25 chain: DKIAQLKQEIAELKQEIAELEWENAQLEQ

[26] = target: T26, 4H2702-bA; experiment: two-hybrid library CCNG1
T26 chain: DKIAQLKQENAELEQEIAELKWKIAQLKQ

[27] = target: T27, 4H754-bA; experiment: two-hybrid library CCNG1
T27 chain: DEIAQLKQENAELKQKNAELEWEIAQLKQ

[28] = target: T28, 4H780-bA; experiment: two-hybrid library CCNG1
T28 chain: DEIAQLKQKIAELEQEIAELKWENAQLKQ

[29] = target: T29, 4H1831-bA; experiment: two-hybrid library CCNG1
T29 chain: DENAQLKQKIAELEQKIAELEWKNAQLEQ

[30] = target: T30, 4H346-bA; experiment: two-hybrid library CCNG1
T30 chain: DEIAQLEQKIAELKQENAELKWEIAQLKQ

[31] = target: T31, 4H683-bA; experiment: two-hybrid library CCNG1
T31 chain: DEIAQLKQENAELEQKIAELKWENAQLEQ

[32] = target: T32, 4H2673-bA; experiment: two-hybrid library CCNG1
T32 chain: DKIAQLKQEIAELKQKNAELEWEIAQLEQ

[33] = target: T33, O3-bP; experiment: two-hybrid library CCNG1
T33 chain: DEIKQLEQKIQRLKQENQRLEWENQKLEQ

[34] = target: T34, 4H918-bA; experiment: two-hybrid library CCNG1
T34 chain: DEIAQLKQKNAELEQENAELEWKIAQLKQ

[35] = target: T35, 4H170-bA; experiment: two-hybrid library CCNG1
T35 chain: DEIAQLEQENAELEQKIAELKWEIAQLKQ

[36] = target: T36, 4H2586-bA; experiment: two-hybrid library CCNG1
T36 chain: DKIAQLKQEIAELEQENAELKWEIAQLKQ

[37] = target: T37, 4H118-bA; experiment: two-hybrid library CCNG1
T37 chain: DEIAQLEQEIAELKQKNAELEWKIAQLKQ

[38] = target: T38, 4H855-bA; experiment: two-hybrid library CCNG1
T38 chain: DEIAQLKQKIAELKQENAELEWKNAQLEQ

[39] = target: T39, 4H953-bA; experiment: two-hybrid library CCNG1
T39 chain: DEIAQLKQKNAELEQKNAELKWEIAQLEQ

[40] = target: T40, 4H3010-bA; experiment: two-hybrid library CCNG1
T40 chain: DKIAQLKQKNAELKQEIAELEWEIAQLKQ

[41] = target: T41, 4H3427-bA; experiment: two-hybrid library CCNG1
T41 chain: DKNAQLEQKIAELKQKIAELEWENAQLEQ

[42] = target: T42, 4H575-bA; experiment: two-hybrid library CCNG1
T42 chain: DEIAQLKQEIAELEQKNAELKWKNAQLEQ

[43] = target: T43, 4H1405-AA; experiment: two-hybrid library CCmax
T43 chain: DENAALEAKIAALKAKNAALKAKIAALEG

[44] = target: T44, 4H2608-AA; experiment: two-hybrid library CCmax; conditions: mean of both orientations
T44 chain: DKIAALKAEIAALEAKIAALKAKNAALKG

[45] = target: T45, 4H2726-AA; experiment: two-hybrid library CCmax; conditions: mean of both orientations
T45 chain: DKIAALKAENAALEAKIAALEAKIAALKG

[46] = target: T46, 4H2614-AA; experiment: two-hybrid library CCmax; conditions: mean of both orientations
T46 chain: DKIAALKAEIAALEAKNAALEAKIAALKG

[47] = target: T47, 4H662-AA; experiment: two-hybrid library CCmax; conditions: mean of both orientations
T47 chain: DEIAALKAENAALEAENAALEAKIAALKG

[48] = target: T48, 4H3664-AA; experiment: two-hybrid library CCmax; conditions: mean of both orientations
T48 chain: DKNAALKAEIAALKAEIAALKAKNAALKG

[49] = target: T49, 4H55-AA; experiment: two-hybrid library CCmax
T49 chain: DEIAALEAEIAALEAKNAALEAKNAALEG

[50] = target: T50, 4H3605-AA; experiment: two-hybrid library CCmax; conditions: mean of both orientations
T50 chain: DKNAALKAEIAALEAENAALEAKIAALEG

[51] = target: T51, 4H2238-AA; experiment: two-hybrid library CCmax; conditions: mean of both orientations
T51 chain: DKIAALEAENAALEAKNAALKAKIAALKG

[52] = target: T52, 4H2935-AA; experiment: two-hybrid library CCmax; conditions: mean of both orientations
T52 chain: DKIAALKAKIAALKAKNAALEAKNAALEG

[53] = target: T53, 4H2513-AA; experiment: two-hybrid library CCmax; conditions: mean of both orientations
T53 chain: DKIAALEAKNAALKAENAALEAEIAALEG

[54] = target: T54, 4H3625-AA; experiment: two-hybrid library CCmax; conditions: mean of both orientations
T54 chain: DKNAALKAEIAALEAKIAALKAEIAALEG

[55] = target: T55, 4H4033-AA; experiment: two-hybrid library CCmax; conditions: mean of both orientations
T55 chain: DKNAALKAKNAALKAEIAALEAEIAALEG

[56] = target: T56, 4H3922-AA; experiment: two-hybrid library CCmax; conditions: mean of both orientations
T56 chain: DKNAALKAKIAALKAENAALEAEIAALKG

[57] = target: T57, 4H175-AA; experiment: two-hybrid library CCmax
T57 chain: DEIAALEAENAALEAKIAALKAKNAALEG

[58] = target: T58, 4H2211-AA; experiment: two-hybrid library CCmax; conditions: mean of both orientations
T58 chain: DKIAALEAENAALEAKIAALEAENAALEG

[59] = target: T59, 4H369-AA; experiment: two-hybrid library CCmax; conditions: mean of both orientations
T59 chain: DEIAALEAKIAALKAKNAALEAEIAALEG

[60] = target: T60, 4H481-AA; experiment: two-hybrid library CCmax; conditions: mean of both orientations
T60 chain: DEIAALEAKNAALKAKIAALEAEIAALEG

[61] = target: T61, 4H327-AA; experiment: two-hybrid library CCmax; conditions: mean of both orientations
T61 chain: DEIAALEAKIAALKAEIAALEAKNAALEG

[62] = target: T62, 4H2536-AA; experiment: two-hybrid library CCmax; conditions: mean of both orientations
T62 chain: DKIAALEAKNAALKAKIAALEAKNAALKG

Binder: DKIQELKKENEELEREIWELEKENQELER [4H2691-bH]
- interaction score [1]: -0.0571
- interaction score [2]: 1.3
- interaction score [3]: -1.39
- interaction score [4]: -1.06
- interaction score [5]: 0.576

Binder: DKIQELKKEIEELERKNWELKKENQELER [4H2619-bH]
- interaction score [1]: 0.304
- interaction score [2]: -0.548
- interaction score [3]: -0.755
- interaction score [6]: 0.722
- interaction score [4]: 1.45
- interaction score [7]: -0.495
- interaction score [8]: 0.724
- interaction score [9]: 0.518
- interaction score [10]: 1.68
- interaction score [11]: -0.9
- interaction score [5]: -0.416
- interaction score [12]: 0.248
- interaction score [13]: 0.382

Binder: DEIQQLKQKIQELKQENQELEWKNQELEQ [4H855-bN]
- interaction score [14]: -0.862
- interaction score [15]: -0.67
- interaction score [16]: -0.495
- interaction score [17]: -0.584
- interaction score [18]: -1.39

Binder: DEIAQLEQEIAELKQKNAELEWKIAQLKQ [4H118-bA]
- interaction score [19]: -1.22
- interaction score [20]: 0.0453
- interaction score [21]: -0.156
- interaction score [22]: -0.384
- interaction score [23]: 1.96
- interaction score [24]: 0.131
- interaction score [25]: 0.852
- interaction score [26]: 0.439
- interaction score [27]: -1.04
- interaction score [28]: 0.087
- interaction score [29]: -0.644
- interaction score [30]: -0.612
- interaction score [31]: -0.721
- interaction score [32]: 1.32
- interaction score [33]: -1.86
- interaction score [34]: -0.49
- interaction score [35]: -0.0431
- interaction score [36]: 0.381
- interaction score [37]: 1.64
- interaction score [38]: 0.403
- interaction score [39]: -0.791
- interaction score [40]: 2.66
- interaction score [41]: 0.236
- interaction score [42]: 0.369

Binder: DENAALEAKIAALKAKNAALKAKIAALEG [4H1405-AA]
- interaction score [43]: -1.08
- interaction score [44]: -0.735
- interaction score [45]: 0.87
- interaction score [46]: 1.52
- interaction score [47]: 0.709
- interaction score [48]: -1.67
- interaction score [49]: -1.42
- interaction score [50]: 2.26
- interaction score [51]: -1.22
- interaction score [52]: -1.84
- interaction score [53]: -1.52
- interaction score [54]: -1.11
- interaction score [55]: -0.407
- interaction score [56]: 0.997
- interaction score [57]: 1.87
- interaction score [58]: 1.88
- interaction score [59]: -0.585
- interaction score [60]: -0.893
- interaction score [61]: -1.19
- interaction score [62]: -1.01

From PMC10397247
